T1: APBA3_1, O96018
T1 sequence (O96018 389-490, limits assumed, looked up): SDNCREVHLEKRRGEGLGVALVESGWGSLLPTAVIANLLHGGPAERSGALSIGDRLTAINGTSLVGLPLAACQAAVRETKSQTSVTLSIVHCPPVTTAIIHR

T2: DVL3, Q92997
T2 sequence (Q92997 244-331, limits assumed, looked up): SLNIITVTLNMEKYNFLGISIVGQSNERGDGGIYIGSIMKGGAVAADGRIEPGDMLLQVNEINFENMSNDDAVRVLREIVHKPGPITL

T3: GRIP1_3, Q9Y3R0
T3 sequence (Q9Y3R0 247-346, limits assumed, looked up): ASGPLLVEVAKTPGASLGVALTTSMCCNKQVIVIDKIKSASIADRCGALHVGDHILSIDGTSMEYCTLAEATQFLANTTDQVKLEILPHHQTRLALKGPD

T4: GRIP1_4, Q9Y3R0
T4 sequence (Q9Y3R0 467-571, limits assumed, looked up): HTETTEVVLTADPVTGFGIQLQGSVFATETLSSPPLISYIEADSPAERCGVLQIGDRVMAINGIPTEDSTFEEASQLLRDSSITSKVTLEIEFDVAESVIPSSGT

T5: GRIP1_5, Q9Y3R0
T5 sequence (Q9Y3R0 568-668, limits assumed, looked up): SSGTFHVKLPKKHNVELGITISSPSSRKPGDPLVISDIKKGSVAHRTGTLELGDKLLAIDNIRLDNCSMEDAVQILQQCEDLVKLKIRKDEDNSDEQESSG

T6: LIN7C, Q9NUP9
T6 sequence (Q9NUP9 88-185, limits assumed, looked up): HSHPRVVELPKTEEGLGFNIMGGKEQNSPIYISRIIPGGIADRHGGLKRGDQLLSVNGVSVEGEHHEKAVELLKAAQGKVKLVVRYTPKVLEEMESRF

T7: MPDZ_12, O75970
T7 sequence (O75970 1857-1958, limits assumed, looked up): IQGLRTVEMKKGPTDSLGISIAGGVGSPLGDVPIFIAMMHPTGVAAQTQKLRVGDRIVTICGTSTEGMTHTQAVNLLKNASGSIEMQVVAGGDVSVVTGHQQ

T8: MPDZ_5, O75970
T8 sequence (O75970 695-796, limits assumed, looked up): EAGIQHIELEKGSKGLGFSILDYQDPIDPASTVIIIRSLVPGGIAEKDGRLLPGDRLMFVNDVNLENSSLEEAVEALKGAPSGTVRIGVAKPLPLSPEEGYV

T9: NHERF3_1, Q5T2W1
T9 sequence (Q5T2W1 4-100, limits assumed, looked up): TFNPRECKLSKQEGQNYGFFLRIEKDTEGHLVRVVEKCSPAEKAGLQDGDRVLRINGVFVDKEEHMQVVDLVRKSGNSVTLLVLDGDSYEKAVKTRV

T10: SIPA1L2, Q9P2F8
T10 sequence (Q9P2F8 945-1036, limits assumed, looked up): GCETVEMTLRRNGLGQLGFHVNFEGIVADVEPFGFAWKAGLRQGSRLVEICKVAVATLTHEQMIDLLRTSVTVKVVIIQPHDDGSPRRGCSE

T11: TIAM2, Q8IVF5
T11 sequence (Q8IVF5 885-986, limits assumed, looked up): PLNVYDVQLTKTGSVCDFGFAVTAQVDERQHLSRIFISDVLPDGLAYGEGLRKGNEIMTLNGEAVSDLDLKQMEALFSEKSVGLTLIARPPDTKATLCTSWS


Columns and labels:
Experiment in all cases: holdup assay
Parameters in all cases: key: below the threshold = too weak to quantify, mostly under pKd 3.1 to 4
Details in all cases: plain residues with an end cap or a label only (N-terminal biotin on a linker: ttds)
APBA3_1, O96018 = target: T1, APBA3_1, O96018
DLG2_2, Q15700 = target: DLG2_2, Q15700
DLG2_3, Q15700 = target: DLG2_3, Q15700
DLG4_1, P78352 = target: DLG4_1, P78352
DLG4_1, P78352, sequence (P78352 62-152): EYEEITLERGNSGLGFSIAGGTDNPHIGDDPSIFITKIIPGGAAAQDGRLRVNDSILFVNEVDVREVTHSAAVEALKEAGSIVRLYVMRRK

DVL3, Q92997 = target: T2, DVL3, Q92997
GRIP1_3, Q9Y3R0 = target: T3, GRIP1_3, Q9Y3R0
GRIP1_4, Q9Y3R0 = target: T4, GRIP1_4, Q9Y3R0
GRIP1_5, Q9Y3R0 = target: T5, GRIP1_5, Q9Y3R0
GRIP2_4, Q9C0E4 = target: GRIP2_4, Q9C0E4
GRIP2_4, Q9C0E4, sequence (Q9C0E4 446-548): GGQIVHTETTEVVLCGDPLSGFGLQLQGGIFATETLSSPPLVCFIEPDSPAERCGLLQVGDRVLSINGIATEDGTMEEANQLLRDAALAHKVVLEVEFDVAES

GRIP2_5, Q9C0E4 = target: GRIP2_5, Q9C0E4
GRIP2_5, Q9C0E4, sequence (Q9C0E4 544-642): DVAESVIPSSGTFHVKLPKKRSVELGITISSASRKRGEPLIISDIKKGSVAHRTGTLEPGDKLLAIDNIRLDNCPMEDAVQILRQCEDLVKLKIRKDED

IL16_3, Q14005 = target: IL16_3, Q14005
IL16_3, Q14005, sequence (Q14005 1107-1207): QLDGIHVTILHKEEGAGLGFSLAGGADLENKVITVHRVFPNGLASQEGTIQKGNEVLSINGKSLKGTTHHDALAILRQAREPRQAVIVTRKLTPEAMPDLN

Inadl_1, Q8NI35 = target: Inadl_1, Q8NI35
Inadl_1, Q8NI35, sequence (Q8NI35 113-229): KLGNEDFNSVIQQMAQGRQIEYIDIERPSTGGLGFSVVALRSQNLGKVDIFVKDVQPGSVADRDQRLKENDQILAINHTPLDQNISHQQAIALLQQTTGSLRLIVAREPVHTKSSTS

Inadl_2, Q8NI35 = target: Inadl_2, Q8NI35
Inadl_2, Q8NI35, sequence (Q8NI35 238-335): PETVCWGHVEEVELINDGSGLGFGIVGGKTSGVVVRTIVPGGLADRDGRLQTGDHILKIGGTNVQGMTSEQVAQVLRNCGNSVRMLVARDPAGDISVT

Inadl_8, Q8NI35 = target: Inadl_8, Q8NI35
Inadl_8, Q8NI35, sequence (Q8NI35 1425-1530): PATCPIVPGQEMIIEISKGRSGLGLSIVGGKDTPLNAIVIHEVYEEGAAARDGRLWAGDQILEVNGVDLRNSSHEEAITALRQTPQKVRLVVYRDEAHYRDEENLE

LAP2, Q96RT1 = target: LAP2, Q96RT1
LAP2, Q96RT1, sequence (Q96RT1 other isoform, or with tags, fused parts or gaps): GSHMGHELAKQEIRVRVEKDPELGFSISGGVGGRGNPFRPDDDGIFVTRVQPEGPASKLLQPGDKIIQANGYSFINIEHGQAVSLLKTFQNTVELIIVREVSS

LIN7C, Q9NUP9 = target: T6, LIN7C, Q9NUP9
MAGI1_1, Q96QZ7 = target: MAGI1_1, Q96QZ7
MAGI1_1, Q96QZ7, sequence (Q96QZ7 1-106): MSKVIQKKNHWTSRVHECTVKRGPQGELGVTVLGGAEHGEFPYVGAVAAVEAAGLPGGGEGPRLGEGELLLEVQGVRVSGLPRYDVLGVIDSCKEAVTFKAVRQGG

MAGI3_2, Q5TCQ9 = target: MAGI3_2, Q5TCQ9
MAGI3_2, Q5TCQ9, sequence (Q5TCQ9 398-503): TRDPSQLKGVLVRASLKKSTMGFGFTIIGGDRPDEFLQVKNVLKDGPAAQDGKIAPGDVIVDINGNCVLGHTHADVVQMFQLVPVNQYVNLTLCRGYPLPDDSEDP

MPDZ_12, O75970 = target: T7, MPDZ_12, O75970
MPDZ_5, O75970 = target: T8, MPDZ_5, O75970
NHERF2_2, Q15599 = target: NHERF2_2, Q15599
NHERF2_2, Q15599, sequence (Q15599 142-238): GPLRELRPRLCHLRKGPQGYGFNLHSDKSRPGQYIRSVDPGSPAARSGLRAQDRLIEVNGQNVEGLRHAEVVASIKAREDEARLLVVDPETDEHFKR

NHERF3_1, Q5T2W1 = target: T9, NHERF3_1, Q5T2W1
PDLIM1, O00151 = target: PDLIM1, O00151
PDLIM1, O00151, sequence (O00151 1-87): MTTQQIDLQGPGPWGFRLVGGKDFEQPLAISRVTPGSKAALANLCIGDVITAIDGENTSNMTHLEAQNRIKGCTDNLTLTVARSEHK

SCRIB_2, Q14160 = target: SCRIB_2, Q14160
SCRIB_2, Q14160, sequence (Q14160 857-960): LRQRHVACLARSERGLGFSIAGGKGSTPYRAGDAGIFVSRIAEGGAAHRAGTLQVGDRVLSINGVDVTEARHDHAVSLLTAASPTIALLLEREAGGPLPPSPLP

SIPA1L2, Q9P2F8 = target: T10, SIPA1L2, Q9P2F8
TIAM2, Q8IVF5 = target: T11, TIAM2, Q8IVF5

pKd (APBA3_1, O96018) | pKd (DLG2_2, Q15700) | pKd (DLG2_3, Q15700) | pKd (DLG4_1, P78352) | pKd (DVL3, Q92997) | pKd (GRIP1_3, Q9Y3R0) | pKd (GRIP1_4, Q9Y3R0) | pKd (GRIP1_5, Q9Y3R0) | pKd (GRIP2_4, Q9C0E4) | pKd (GRIP2_5, Q9C0E4) | pKd (IL16_3, Q14005) | pKd (Inadl_1, Q8NI35) | pKd (Inadl_2, Q8NI35) | pKd (Inadl_8, Q8NI35) | pKd (LAP2, Q96RT1) | pKd (LIN7C, Q9NUP9) | pKd (MAGI1_1, Q96QZ7) | pKd (MAGI3_2, Q5TCQ9) | pKd (MPDZ_12, O75970) | pKd (MPDZ_5, O75970) | Binder | also measured
below the threshold | 3.96 | 4.65 | 4.22 | below the threshold | 3.51 | below the threshold | below the threshold | below the threshold | below the threshold | below the threshold | below the threshold | below the threshold | below the threshold | below the threshold | below the threshold | below the threshold | 4.75 | below the threshold | below the threshold | QRPYRRESEI [KCNJ12, Q14500] | pKd (NHERF2_2, Q15599): below the threshold; pKd (NHERF3_1, Q5T2W1): below the threshold; pKd (PDLIM1, O00151): below the threshold; pKd (SCRIB_2, Q14160): 3.56; pKd (SIPA1L2, Q9P2F8): below the threshold; pKd (TIAM2, Q8IVF5): below the threshold
below the threshold | 4.88 | 4.54 | 4.68 | below the threshold | below the threshold | below the threshold | below the threshold | below the threshold | below the threshold | below the threshold | below the threshold | below the threshold | below the threshold | 4.41 | 3.72 | below the threshold | 4.68 | below the threshold | below the threshold | GRLLGLETNV [ARHGEF26, Q96DR7] | pKd (NHERF2_2, Q15599): below the threshold; pKd (NHERF3_1, Q5T2W1): below the threshold; pKd (PDLIM1, O00151): below the threshold; pKd (SCRIB_2, Q14160): 4.29; pKd (SIPA1L2, Q9P2F8): below the threshold; pKd (TIAM2, Q8IVF5): below the threshold
